Source: the nanobody polyreactivity screen of Harvey et al. (2022)

Assay: yeast display, Sf9 membrane polyspecificity reagent, FACS + sequencing; frameworks hold sequencing errors
How it was run: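 Nanobodies came from a synthetic yeast display library in Saccharomyces cerevisiae BJ5465, induced with galactose for 36–48 hours and stained for 1 hour at 4 °C with 10% biotinylated, detergent-solubilized Sf9 membrane reagent. Cells were enriched on streptavidin microbeads and then FACS-sorted, with low and high (top ~1%) gates set on anti-HA fluorescence for expression and streptavidin fluorescence for reagent binding. Each polyreactivity label reflects the gate a clone came from. Genes were amplified by colony PCR, sequenced by MiSeq 2 × 250 and filtered by CDR length.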

Sequence | polyreactivity (PSR sort gate)
QVQLVESGGGLVQAGGSLRLSCAASGSIFWGYAMGWNRQAPRKEREMVATITYGGDSTYYADSVKGRFTISRDNAKNTVYLQMNSLKPEDTAVYYCNVGVEPYDYVYWGQGTQVTVSS | low polyreactivity
QVQLVESGGGLVQAGGSLRLSCPASGGTFYVYAMGGYRQEPGKERELVAAISTSDGITYYADSVKGRFTISRDNAKNNVYLQMNSLKPEDTAVYYCAAVYAGVGSPVKRDYWGLGTQVTVSS | high polyreactivity
QVQLVESGGGLVQAGGRLRLSCAASGRIFSAYAMGWYRQAPGKERELVAAISRSGGRTYYADSVKGRFTISRDNAKNTVYLQMNSLKPEDTAVYYCAAARFAIVRGDYWGQGTQVTVSS | high polyreactivity
QVQLVESGGGLVQAGGSLRLSCAASGRINAMGWYRQAPGKERELVAVITLRGGSTYYADSVKGRFTISRDNAKNTVYLQMNSLKPEDTAVYYCAAVYRWPDAKYDYWGQGTQVSVSS | low polyreactivity
QVQLVVSGGGLVQEGGSLRLSCAASGGLFSLYAMGWYRQAPGKEREFVSAISFSGASTYYADSVKGRFTISRDNAKNTVSLQKNSLKPEDTSVYYCAAYWDAVGRRYTRLYYWGQGTQVTVSS | low polyreactivity
QVQLVESGGGLVQAGGSLRLSCAASGFTFGKYARGWYRQAPGKERELVAAISRSGGSTYYADSVKGRFTISRDNAKNTVYLQMNSLKPEDTAVYYCAAYHPIQEYDYWGQGTQVTVSS | high polyreactivity
QVQLVESGGGLVQAGGSLRLSCAASGRTFTTYTMGWYRQAPGKERELVASINYRGGRTYYADSVKGRFTISRDNAKNTVYLQMNSLKPEDTAVYYCAKRRYYRRRQYYHYDYWGQGTQVTVSS | high polyreactivity
QDQLVESGGGLVQAGGSLSLSCAASGLIFSDNAMGWYRQAPGKERELVATITFSGSTNYADSVKGRFTISRDNAKNTVYLQMNSLKPEDTAVFFCAADAGGGPFEYWGQGTHVTVSS | low polyreactivity
QVQHVESGGGLVQAGGSLRLSCAASGSTFNSYDKGSYRQAPGKERELVAAISSSAASTYYADSVKGRFTISRDNAKKTGYLQMNSLKPEDTAVYYCAAYVYYTYPSCTVYSVSYIYDYWAQGTQVTVSS | low polyreactivity
QVQLVESGGGLVQAGGSLRLSCAASGSTFRTNVMGWYRQAPGKERELVAAITKRGSITYYADSVKGRFTISRDNAKNTVYFQMNSLKPEDTAVYYCAARKVAVGGYGYWGQGTQVTVSS | high polyreactivity
QVQLVESVGGLVQAGGSLRLSCAASGRIFRKYDMGWYRQAPGKERELVAAISGTGITYYADSVKGRFTISRDNAKNTVYLQMNSLKPEDTAVYYCARGSKPRAWSWAYPSATSIYDYWGQGTQVTVSS | low polyreactivity
QVQLVESGGGLVQAGGSLRLSCAASGRTFRYYTMGWYRQAPGKEREFVAAISSTGGTYYADSVKGRFTISRDNAKNTVYLQMNSLKPEDTAVYYCNATTSSNEYDSWGQGTQVTVSS | low polyreactivity
QVQLLESGAGLLQAGGSLRLSCAASGRTFLKYAMGWYRQAPGKERELVAAISRGDSTYYADSVKGRFTISRDNAKNTVYLQMNSLKTEDTAVYFCAKPGYYVRYGYWGQGTQVTVSS | high polyreactivity
QVQLVESGGGLVQAGGSLRLSCAASGYIFRQNAMGWYRQAPGKERELVAAITWSGGSTYYADSVKGRFTISRDNAKNTVYLQMNSLKPEDTAVYYCNAYSYVAIRDGGDYWGQGTQVTVSS | low polyreactivity
QVQLVESGGGLVQAGGSLRLSCAASGSIFGYYAMGWYRQAPGKERELVAVITRDASTYYADSVKGRFTISRDNAKNTVDLQMNSLKPEDTAVYYCAADRWWRRSWVKLDYWGHGTQVTVSS | low polyreactivity
QVQLVESGGGLVQAGGSLRLSCAASGFIFSYYAMGWYRQAPGKERELVAAITWDGGSTYYADSVKGRFTISRDNAKNTVYLQMNSLKPEDTAVYYCNAYYYYRRPLEGGYWGQGTQVTVSS | low polyreactivity

Sequence | polyreactivity (PSR sort gate)
QVQLVESGGGLDQAGGSLRLSCAASGLIFVRYAMGWYRQAPGKERELVATISARGASTYYADSVKGRFTISRDNAKNTVYLQMNSLIPEDTAVYYCANRGYYSRFYSYGYWGQGTEVTVSS | high polyreactivity
QVQHVESGGGLVQAGGSLRLSCAASGRTFNAYTMGWYRQAPGKERELVAAITSSGGNTYYADSVKGRFTISRDNAKNSVYLQMNSLKPEDTAVYYCNTVYLYGTHDYWGQGTQVTGSS | low polyreactivity
QVQLVESGGGLVQAGGSLRLSCAASGTFFIYAMGWYRQAPGKERELVATISSGGSTNYADSVKGRFTISRDNAKNTVYLQMNSLKPEDTAVYYCAAEWLYPHDGGYPRPMDYWGQGTQVTVSS | low polyreactivity
QVQLVESGGGLVQARGSLRLSCAASGSIFYGYALGWYRQAPGKERELVAAITSSGTRTYYADSVKGRFTISRDNAKNTVYLQMNSLKPEDTAVYYCAADGPGYQYDFWGQGTQVTVSS | high polyreactivity
QVQLVESGGGLVQAGGSLRLSCAASGYIFYDYVMGWYRQAPGKEREVVAAISSGGNTNYADSVKGRFTISRDNAKNTVYLQMNSLKPEDTAVYYCAADRWGARRKQYHENGYWGQGTQVTVSS | high polyreactivity
QVQLVESGGGLVQAGGTLRLTCAASGLTFGSNAMGWYRTAPGKERELVAAISVSGSTYYADSVKGRFTISRDNAKNTVYLLMNSLKPEDTAVYYCATYWAAGSRSRYASWGQGTQVTVSS | high polyreactivity
QVQLVESGGGLVQAGGSLRLSCAASGSIFPQYAMGWYRQAPGKERELVAGISGSGGGTYYADSVKGRFTISRDNAKNTVYLQMNSLKPEDTAVYDCYDYWGQGTQVTVSS | low polyreactivity
QGQLVESGGGLVQAGCSLRLSCAASGSNFYYKAMGWYRQAPRKERELVARISRSGGSTYADSVKGRFTISRDNAKNTVYLQMNSLKPEDTAVYYCNADAYGTPEFTPYSVRYDYWGQGTQVTVSS | low polyreactivity
QVQLVESGGCLVQAGGSLSLSCAHSGGNFTFYAMVWYTQAPGKERELVATINWSGGSTYYADSVKGRFTISRDNAKITVYLQMNSLKPADTAVYYCNAAWPYKSVEYWGHGTQVTVSS | low polyreactivity
QVQLVESGGGLVQAGGSLRLICAASGRIFNSYAMGWFRQAPGKEMELVAAISRNGGITYYADSVKGRFTISRDNAKNTVYFQMNSLKPEDTAVYYCNADSSRRRYSSDYWGQGTQVTVSS | high polyreactivity
QVQLVESGGGLVQAGGSLRLSCAASGIIFINYVMGWYRQAPGKESELVAAITGSGSSTYYADSVKGRFTISRDNAKNTVYLQMNSLKPEDTAVYYCAADNPRVRFLYYYWGQGTQVTVSS | high polyreactivity
QVQLVESGGGLVQAGGSLRLSCAASGRIFVYYAMGWYRQAPGKERELVASISYSGASTYYADSVKGRFTISRDNAKNTVYLQMNSLKPEDTAVYYCATDVRGVDGEDDYWGQGTQVTVSS | low polyreactivity
QVQLVESGGGLVQAGGSLRLSCAASGSTFGVYAMGWYRQAPGKDRELVAAISRSGGRTYYADSVKGRFTISRDNAKNSVYLQMNSLKPEDTAVYYCALYGGLGDRFRPRYYWGQGTQVTVSS | high polyreactivity
QVQIVESGGGLVQAGGSLRLRCAASGRIIYKNAMGWYRQAPGKERELVAAITTSGGSTYYADSVKGRFTISRDNSKNTVYLEMNSLKPEDTAVYYCATRGHYRQTINYWGQGTQVTVSS | high polyreactivity
QVQLVESGGGLVQAGGSLRLSCAASGRIFWEYAMGWYRQAPGKERELVAAITWRVGSTYYADSVKGRFTISRDNAKNTVYLQMNSLKPEDTAVYYCAAARYLSIYNYWGQGTQVTVSS | low polyreactivity
QVQLVESGGGLVQAGGSLRLSCAASGNIFPYNAMAWYRQAPGKERELVATISSGGSTYYADSVKGRFTISRDNAKNTVYLQMNSLKPEDTAVYYCAARGRYPYRYGYWGQGTQVTVSS | high polyreactivity
